This is an account of results in patent US7572895B2, “Transferrin receptor antibodies” (Raven Biotechnologies, Inc., priority 2004, dated 2009).

One assay has as its system HCT15 tumor xenograft. Briefly: Established HCT15 tumor xenograft model. In kind it is in vivo, mice. Conditions: antibody 500 ug twice weekly for four weeks; gemcitabine 120 mg/kg q3d ×2. As for the experimental part: For each experimental group, data is plotted until the first animal presents with a tumor greater than 1000 mm^3.
LUCA31 was particularly active in blocking the proliferation of the colon carcinoma cell line HCT15. […] In this study, groups of 15 mice were treated twice weekly with 500 ug of antibody for four weeks. Gemcitabine was dosed on a q3d ×2 schedule at 120 mg/kg, which is near the MTD. Treatment was initiated when tumor volumes averaged 70 mm^3. In FIG. 16A, the median tumor volumes are shown and in FIG. 16B, the mean tumor volumes with error bars are presented. In this experiment, the LUCA31 antibody produced a tumor growth delay of greater than 14 days, relative to the saline control. Gemcitabine produced a 20-day tumor growth delay and the combination of LUCA31 and gemcitabine produced a tumor growth delay of 18 days relative to gemcitabine alone.

The target in assay [1] is human transferrin receptor, full length, on cells (human) (UniProt P02786). Description: cell-based or functional assay.
UniProt P02786, sequence (P02786 whole entry): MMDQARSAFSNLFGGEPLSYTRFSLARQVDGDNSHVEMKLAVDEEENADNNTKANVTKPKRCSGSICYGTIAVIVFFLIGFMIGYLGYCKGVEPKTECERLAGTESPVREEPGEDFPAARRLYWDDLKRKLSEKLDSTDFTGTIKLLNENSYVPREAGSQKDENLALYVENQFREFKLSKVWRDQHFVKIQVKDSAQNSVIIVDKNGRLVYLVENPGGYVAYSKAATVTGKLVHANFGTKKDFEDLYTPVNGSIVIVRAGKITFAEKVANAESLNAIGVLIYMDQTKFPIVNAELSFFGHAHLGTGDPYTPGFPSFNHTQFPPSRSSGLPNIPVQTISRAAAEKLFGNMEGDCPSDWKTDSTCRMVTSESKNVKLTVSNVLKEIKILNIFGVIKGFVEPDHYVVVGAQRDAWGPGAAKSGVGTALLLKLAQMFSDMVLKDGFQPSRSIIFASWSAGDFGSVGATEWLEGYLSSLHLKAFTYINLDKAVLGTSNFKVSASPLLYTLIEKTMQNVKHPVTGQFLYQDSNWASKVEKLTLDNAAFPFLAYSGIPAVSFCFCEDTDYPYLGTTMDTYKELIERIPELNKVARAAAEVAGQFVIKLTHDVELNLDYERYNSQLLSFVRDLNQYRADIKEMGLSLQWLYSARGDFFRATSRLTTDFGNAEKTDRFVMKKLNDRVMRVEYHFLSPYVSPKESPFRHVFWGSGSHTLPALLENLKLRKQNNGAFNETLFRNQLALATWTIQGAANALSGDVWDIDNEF

`Nc1ccn([C@@H]2O[C@H](CO)[C@@H](O)C2(F)F)c(=O)n1` [Gemcitabine, gemcitabine]: the “tumor growth delay relative to the saline control” value in the assay with HCT15 tumor xenograft came to 20 days.
In assay [1], “LUCA31 monoclonal antibody (mouse anti-human transferrin receptor antibody produced by hybridoma CA130.3.13C9.1A7, ATCC PTA-6055)” had a Maximum inhibition (% inhibition) of cell proliferation, Calu6 cells of 25%; a Maximum inhibition (% inhibition) of cell proliferation, Colo205 cells of 25%; a Maximum inhibition (% inhibition) of cell proliferation, LS174T cells of 35%; a Maximum inhibition (% inhibition) of cell proliferation, SW48 cells of 35%. In assay [1], this compound registered a growth inhibition (MTT), 786-O cells, LUCA31 at 20 ug/ml of 54%; a growth inhibition (MTT), Colo205 cells, LUCA31 at 20 ug/ml of 37%; a growth inhibition (MTT), MDA-MB-175VII cells, LUCA31 at 20 ug/ml of 35%; a growth inhibition (MTT), SKMES-1 cells, LUCA31 at 20 ug/ml of 45%. This compound also registered a maximum inhibition of cell proliferation (tritiated thymidine incorporation), Calu-6 cells in assay [1] of 45%.
In assay [1], transferrin receptor antibody 42/6 showed a Maximum inhibition (% inhibition) of cell proliferation, Calu6 cells of 0%; a Maximum inhibition (% inhibition) of cell proliferation, Colo205 cells of 25%; a Maximum inhibition (% inhibition) of cell proliferation, SW48 cells of 0%.
